One data set concerns rat aortic rings. Kind of data set: Aorta ring assay (ex vivo). Particulars: VEGF-conditioned medium, GL equivalent 200 µM, 14 days. The protocol: An aorta ring assay was conducted to confirm the anti-angiogenesis effect of Lf-GL ex vivo. A 48-well plate was coated with of Matrigel® (100 μL) and was incubated for 30 min or more in 37℃ incubators. In the meantime, thoracic aortas of 7-week-old male SD rats were excised. Then, the fat layer and outer membrane were removed, and rings approximately 1 mm in length were prepared. The prepared aortic rings were seeded on a coated Matrigel® of 48-well plate and were covered with Matrigel®. (100 μL) Subsequently, the aortic ring was treated with a control (with or without 25 ng mL^−1 of VEGF) or different concentrations of Lf-GL complex. Medium was changed once every two days. Fourteen days after treatment, optical images of sprouting microvessels were obtained using microscopy magnification (× 40 or × 100). Sprouting microvessel area was quantified using Image J and Sigma Plot.
Fig. S14. Significant inhibitory effect of Lf-GL in aortic ring angiogenesis. Optical images of vessel regression in aortic ring with Lf-GL treatment. Aortic ring assay was carried out in 48-well plate coated with Matrigel. VEGF-non treated control represents that aortic ring incubated with normal medium. VEGF-treated control represents that aortic ring incubated with 25 ng mL^-1 VEGF-conditioned medium. […]

Data set [1] has as its target T1, human recombinant HMGB1 protein (Homo sapiens, UniProt P09429).
T1 construct: purchased Abcam
T1 sequence (P09429 1-215): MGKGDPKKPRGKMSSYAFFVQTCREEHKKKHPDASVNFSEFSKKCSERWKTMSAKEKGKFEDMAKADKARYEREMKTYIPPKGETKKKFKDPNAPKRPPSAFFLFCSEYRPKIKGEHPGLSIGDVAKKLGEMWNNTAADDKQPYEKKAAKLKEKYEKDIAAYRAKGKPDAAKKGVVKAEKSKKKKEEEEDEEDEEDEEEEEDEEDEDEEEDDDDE
In words: SPR binding affinity against HMGB1. The method, then: To confirm the binding affinity of Lf-GL to HMGB1, Surface Plasmon Resonance (SPR) was conducted at WoojungBSC (Korea). The Reichert SR7500DC system (Reichert technologies, NA, USA) and Scrubber2 software (Biologic software, FRA) were used, and a CMDH chip (Cat #: 13,206,066, Reichert technologies) was used for immobilization of the human recombinant HMGB1 protein (Abcam). HMGB1 protein was used as a ligand, and the analytes were HMGB1 antibody (Abcam), GL, Lf and Lf-GL conjugate. The immobilization buffer was S.A. (10 × 10^–3 M, pH 4.5), and the running buffer was PBS (pH 7.4). The flow rate of the analyte was 30 μL min^−1. The association and dissociation time were 3 min each, and measurements were conducted at room temperature. Results are expressed in response units (RU) over time.
Fig. S5. Binding affinity against HMGB1. Surface Plasmon Resonance (SPR) was conducted at WoojungBSC (Korea). The Reichert SR7500DC system (Reichert technologies, NA, USA) and Scrubber2 software(Biologic software, FRA) were used and the CMDH chip (Cat #: 13206066, Reichert technologies) was used for immobilization of the human recombinant HMGB1 protein (Abcam). HMGB1 protein was used as ligand and analytes were HMGB1 antibody (Abcam), GL, Lf and Lf-GL conjugate. Immobilization buffer was 10 mM S.A. (pH 4.5) and running buffer was 1× PBS. The flow rate of the analyte was 30 μL min^-1. The association and dissociation time were 3 min each and conducted at room temperature. Results are expressed in response units (RU) over time.

A further data set deals with HMGB1. Kind of data set: HUVEC co-cultured with U87MG: HMGB1 ELISA. Type of data set: cell-based, human. Particulars: HUVEC/U87MG co-culture, 100 μM GL equivalent, 24 h (control 217.8 ± 5.9). The method, then:
(§1) To evaluate the inhibitory effect of Lf-GL on neovascularization in the tumor microenvironment in vitro, U87MG cells were seeded in the Transwell® insert chambers that were 6.5 mm in diameter and had 0.4 μm pore sizes (seeding density: 2.5 × 10^4 cells per well, Corning). HUVECs were seeded in the Transwell basal chamber (seeding density: 5.0 × 10^4 cells per well). GL, Lf, or Lf-GL (100 × 10^–6 M of GL equivalent concentration) were added to the insert chamber, and cells were incubated for 24 h. CCK-8 assay and HMGB1 ELISA were conducted at the basal chamber.

In a further data set the test system is HUVEC. Kind of data set: HUVEC co-cultured with U87MG: CCK-8 at basal chamber. The following applies: HUVEC/U87MG Transwell co-culture, 100 μM GL equivalent, 24 h. The class given is cell-based, human. The protocol:
as §1

Data set [2] relates to orthotopic GBM (U87MG) mice model. In words: Nissl staining: GBM/normal brain ratio. Type of data set: in vivo, Balb/c nude mice. The following applies: daily i.v. GL equivalent 50 mg kg^−1, 14 days (control 37.5 ± 2.3). From the text: (§2) After two weeks, mice were sacrificed, and the brains were harvested and fixed with paraformaldehyde (4%). Then, tissue processing was automatically conducted using a Leica TP1020 semi-enclosed Benchtop Tissue Processor (Leica Biosystems, Wetzlar, Hesse, Germany), followed by embedding in paraffin blocks. Paraffin blocks were sliced into 5 μm thick slices using a Leica RM2145 Microtome (Leica Biosystems). Nissl staining was used to stain brain tissue slides with pre-warmed 0.1% Cresyl Violet Stain Solution (Abcam). TUNEL assays were conducted following the manufacturer’s instructions. For immunofluorescence staining; anti-HMGB1 antibody (Abcam), anti-Ki67 antibody (Abcam), anti-CD31 antibody (Abcam), and anti-VEGF antibody (Abcam) were used as primary antibodies, and goat anti-rabbit IgG-H&L Alexa Fluor 488 and goat anti-rabbit IgG H&L Alexa Fluor 647 were used as secondary antibodies, followed by DAPI mounting.

Data set [3] is described as follows: GBM targeted-GL by HPLC in brain homogenate. The class given is in vivo, orthotopic GBM model mice. The method, then:
Orthotopic GBM mice model mice were used for quantification of GBM targeting efficacy. The brain tissue was homogenized in deionized water at a 33.3 w/v (%) using a FastPrep-24 5G (MP biomedical, South Korea). The GL were added to pooled brain homogenate to obtain seven-point calibration curves with a range of 10–1000 ng mL^−1. Then, homogenate (50 μL) was mixed with methanol (100 μL). […] Thereafter, supernatants (100 μL) were mixed with mobile phase solution (900 μL), then filtered with a 0.22 μm syringe filter. Samples were collected in a 2 mL HPLC vial (Screw top vial, Waters, USA) and analyzed by HPLC at 254 nm. […] Mice were sacrificed and brain tissues were collected 10 min after the GL and Lf-GL injection. The samples for quantification were also conducted using the same process as GL standard preparation.

The subject of data set [4] is orthotopic GBM (U87MG) mice model. In words: TUNEL assay of GBM tissue. The class given is in vivo, Balb/c nude mice. The following applies: daily i.v., 14 days (control 28.5 ± 4.8).
Description: as §2

The mark [5] stands for this setting: SPR, HMGB1 immobilized, PBS pH 7.4, room temperature.

B1: Lf-GL: lactoferrin-glycyrrhizin conjugate with ligation ratio Lf:GL 1:10, used in further experiments (conjugate, UniProt P24627 20-708, looked up)
Lactotransferrin: APRKNVRWCTISQPEWFKCRRWQWRMKKLGAPSITCVRRAFALECIRAIAEKKADAVTLDGGMVFEAGRDPYKLRPVAAEIYGTKESPQTHYYAVAVVKKGSNFQLDQLQGRKSCHTGLGRSAGWIIPMGILRPYLSWTESLEPLQGAVAKFFSASCVPCIDRQAYPNLCQLCKGEGENQCACSSREPYFGYSGAFKCLQDGAGDVAFVKETTVFENLPEKADRDQYELLCLNNSRAPVDAFKECHLAQVPSHAVVARSVDGKEDLIWKLLSKAQEKFGKNKSRSFQLFGSPPGQRDLLFKDSALGFLRIPSKVDSALYLGSRYLTTLKNLRETAEEVKARYTRVVWCAVGPEEQKKCQQWSQQSGQNVTCATASTTDDCIVLVLKGEADALNLDGGYIYTAGKCGLVPVLAENRKSSKHSSLDCVLRPTEGYLAVAVVKKANEGLTWNSLKDKKSCHTAVDRTAGWNIPMGLIVNQTGSCAFDEFFSQSCAPGADPKSRLCALCAGDDQGLDKCVPNSKEKYYGYTGAFRCLAEDVGDVAFVKNDTVWENTNGESTADWAKNLNREDFRLLCLDGTRKPVTEAQSCHLAVAPNHAVVSRSDRAAHVKQVLLHQQALFGKNGKNCPDKFCLFKSETKNLLFNDNTECLAKLGGRPTYEEYLGTEYVTAIANLKKCSTSPLLEACAFLTR
modifications: glycyrrhizin conjugate
B1: in the data set on rat aortic rings, the “Decrease of sprouted area of the micro-vessel” value came to 80.2 ± 4.5%. Further, the “KD, equilibrium dissociation constant (KD = Kd Ka^−1)” value in data set [1] (SPR, HMGB1 immobilized) amounted to 23.1 ± 0.1 nM. Further, in data set [1] (setting [5]), the “Ka, association rate constant” value was “(2.64±0.01)·10^4 M^-1s^-1” and the “Kd, dissociation rate constant” value is “(3.11±0.02)·10^-4 M^-1s^-1”. Moreover, the “Affinity for HMGB1 higher than that of HMGB1 antibody” value in data set [1] (ratio of KD values) was determined as 45 fold. Besides, the “HMGB1 level in medium” value with HMGB1 was found to be 176.1 ± 4.9 ng/mL. In addition, in the data set on HUVEC, the “Reduction of endothelial cell proliferation” value was found to be 13.0 ± 0.7%. In data set [2], the GBM/normal brain ratio stood at 8.9 ± 3.2. Moreover, the “Accumulated amount higher than GL without Lf conjugation” value in data set [3] (brain/GBM accumulation) is given as “twofold”. Moreover, the “GL concentration detected in brain homogenate” value in data set [3] (orthotopic GBM mice, i.v. GL equivalent 50 mg kg^−1, 10 min after injection) is 19.3 ± 1.6 µg/mL. The “TUNEL MFI” value in data set [4] turned out to be 9.1 ± 0.9.
